# Measurements from the supplement of paper PMC9112550, “Optimization of the antimicrobial peptide Bac7 by deep mutational scanning” (BMC Biology, 2022).
# Test system: Escherichia coli TOP10
# Test: shrunken log2 fold change of peptide-encoding DNA abundance (4.5 h post-induction vs induction); higher = less antimicrobial activity (less host growth inhibition)
# Conditions: time post-induction: 4.5 h; library: site-saturation at positions 5, 18, 19, 20
# 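Also: peptides expressed intracellularly from a pBAD plasmid library in pooled LB shake-flask culture, induced with 0.3% L-arabinose, DNA abundance read by NGS, three biological replicates, DESeq2 with apeglm shrinkage.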
row,Sequence,shrunken log2 fold change
1,RRIRTRPPRLPRPRPRPIKKPRP,-0.0742
2,RRIRNRPPRLPRPRPRPAHWPRP,0.142
3,RRIRGRPPRLPRPRPRPDNKPRP,-0.169
4,RRIRPRPPRLPRPRPRPYWIPRP,-0.509
5,RRIRVRPPRLPRPRPRPIMNPRP,-0.752
6,RRIRGRPPRLPRPRPRPAFNPRP,0.2
7,RRIRERPPRLPRPRPRPRMKPRP,-0.243
8,RRIRLRPPRLPRPRPRPQLYPRP,-0.12
9,RRIRVRPPRLPRPRPRPRNQPRP,0.0453
10,RRIRMRPPRLPRPRPRPTEDPRP,1.9
11,RRIRSRPPRLPRPRPRPPYNPRP,-0.602
12,RRIRKRPPRLPRPRPRPNYEPRP,-0.0635
13,RRIRPRPPRLPRPRPRPEMAPRP,0.0664
14,RRIRNRPPRLPRPRPRPAARPRP,0.161
15,RRIRVRPPRLPRPRPRPDWPPRP,0.334
16,RRIRHRPPRLPRPRPRPRWAPRP,0.315
17,RRIRYRPPRLPRPRPRPPEDPRP,-0.145
18,RRIRMRPPRLPRPRPRPRQDPRP,0.271
19,RRIRRRPPRLPRPRPRPSTAPRP,0.297
20,RRIRGRPPRLPRPRPRPKPEPRP,0.819
21,RRIRERPPRLPRPRPRPPHMPRP,-0.152
22,RRIRKRPPRLPRPRPRPNECPRP,0.157
23,RRIRMRPPRLPRPRPRPVYGPRP,-0.294

row,Sequence,shrunken log2 fold change
1,RRIRKRPPRLPRPRPRPSECPRP,-0.0384
2,RRIRFRPPRLPRPRPRPTANPRP,-0.0711
3,RRIRPRPPRLPRPRPRPWFEPRP,-0.261
4,RRIRNRPPRLPRPRPRPNSHPRP,-0.858
5,RRIRKRPPRLPRPRPRPTVSPRP,0.099
6,RRIRTRPPRLPRPRPRPFVVPRP,-0.266
7,RRIRFRPPRLPRPRPRPCFYPRP,-0.394
8,RRIRHRPPRLPRPRPRPQWCPRP,-0.218
9,RRIRVRPPRLPRPRPRPAWAPRP,0.255
10,RRIRYRPPRLPRPRPRPQHMPRP,-0.629
11,RRIRPRPPRLPRPRPRPVKQPRP,0.169
12,RRIRPRPPRLPRPRPRPQYTPRP,-0.813
13,RRIRVRPPRLPRPRPRPQNVPRP,-0.51
14,RRIRHRPPRLPRPRPRPKEQPRP,-0.00965
15,RRIRIRPPRLPRPRPRPHELPRP,-0.156
16,RRIRGRPPRLPRPRPRPIHHPRP,-0.0166
17,RRIRPRPPRLPRPRPRPQICPRP,-0.0262
18,RRIRARPPRLPRPRPRPTLRPRP,0.148
19,RRIRVRPPRLPRPRPRPNDRPRP,-0.0172
20,RRIRLRPPRLPRPRPRPFNHPRP,-0.249
21,RRIRGRPPRLPRPRPRPGQIPRP,0.352
22,RRIRFRPPRLPRPRPRPPRDPRP,1
23,RRIRNRPPRLPRPRPRPPEWPRP,-0.188

row,Sequence,shrunken log2 fold change
1,RRIRQRPPRLPRPRPRPCVSPRP,-0.107
2,RRIRTRPPRLPRPRPRPINQPRP,-0.274
3,RRIRHRPPRLPRPRPRPKNPPRP,-0.155
4,RRIRCRPPRLPRPRPRPRGMPRP,1.56
5,RRIRMRPPRLPRPRPRPRSNPRP,0.13
6,RRIRLRPPRLPRPRPRPEVDPRP,-0.0786
7,RRIRCRPPRLPRPRPRPSVCPRP,0.0114
8,RRIRYRPPRLPRPRPRPRCLPRP,-0.0564
9,RRIRWRPPRLPRPRPRPWSFPRP,-0.0355
10,RRIRKRPPRLPRPRPRPLHTPRP,-0.368
11,RRIRMRPPRLPRPRPRPPMVPRP,0.188
12,RRIRARPPRLPRPRPRPWLMPRP,0.0299
13,RRIRKRPPRLPRPRPRPWPLPRP,-0.0227
14,RRIRCRPPRLPRPRPRPPSAPRP,0.345
15,RRIRPRPPRLPRPRPRPKHRPRP,0.0187
16,RRIRMRPPRLPRPRPRPAWRPRP,0.533
17,RRIRSRPPRLPRPRPRPDYPPRP,-0.0733
18,RRIRVRPPRLPRPRPRPRHNPRP,-0.389
19,RRIRRRPPRLPRPRPRPCWYPRP,-0.112
20,RRIRMRPPRLPRPRPRPDFPPRP,-0.0976
21,RRIRFRPPRLPRPRPRPISNPRP,-0.48
22,RRIRWRPPRLPRPRPRPRQWPRP,0.0802
23,RRIRMRPPRLPRPRPRPCRSPRP,0.0369

row,Sequence,shrunken log2 fold change
1,RRIRGRPPRLPRPRPRPGWKPRP,0.0657
2,RRIRVRPPRLPRPRPRPTYPPRP,-0.194
3,RRIRCRPPRLPRPRPRPFGFPRP,-0.388
4,RRIRFRPPRLPRPRPRPYFYPRP,-0.808
5,RRIRARPPRLPRPRPRPRVHPRP,0.555
6,RRIRPRPPRLPRPRPRPINGPRP,-0.482
7,RRIRWRPPRLPRPRPRPEDIPRP,-0.0433
8,RRIRCRPPRLPRPRPRPTTYPRP,-0.781
9,RRIRHRPPRLPRPRPRPQLHPRP,-0.169
10,RRIRKRPPRLPRPRPRPCTCPRP,0.00906
11,RRIRTRPPRLPRPRPRPGSMPRP,-0.199
12,RRIRQRPPRLPRPRPRPIPRPRP,0.145
13,RRIRYRPPRLPRPRPRPYGWPRP,-0.187
14,RRIRKRPPRLPRPRPRPCSNPRP,-0.0227
15,RRIRQRPPRLPRPRPRPFFCPRP,0.111
16,RRIRFRPPRLPRPRPRPKVTPRP,-0.2
17,RRIRIRPPRLPRPRPRPASCPRP,-0.1
18,RRIRTRPPRLPRPRPRPSGEPRP,2.88
19,RRIRLRPPRLPRPRPRPFVTPRP,-0.303
20,RRIRFRPPRLPRPRPRPDNFPRP,-0.204
21,RRIRNRPPRLPRPRPRPSRFPRP,-0.0872
22,RRIRSRPPRLPRPRPRPCASPRP,0.121
